Article PMC10397247

T1: 4H452-AA
T1 chain: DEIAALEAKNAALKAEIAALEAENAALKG

T2: 4H56-AA
T2 chain: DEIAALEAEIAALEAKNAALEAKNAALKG

T3: 4H_BCR
T3 chain: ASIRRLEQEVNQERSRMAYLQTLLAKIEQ

T4: 4H347-AA
T4 chain: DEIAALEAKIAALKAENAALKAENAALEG

T5: 4H3015-AA
T5 chain: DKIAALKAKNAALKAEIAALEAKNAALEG

T6: 4H_APH
T6 chain: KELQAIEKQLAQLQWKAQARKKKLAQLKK

T7: 4H3438-AA
T7 chain: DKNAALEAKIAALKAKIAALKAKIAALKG

T8: 4H3073-AA
T8 chain: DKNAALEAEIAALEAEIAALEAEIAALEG

T9: 4H406-AA
T9 chain: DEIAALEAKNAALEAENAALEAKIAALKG

T10: APC8191-AA
T10 chain: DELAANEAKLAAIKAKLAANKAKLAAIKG

T11: APC5383-AA
T11 chain: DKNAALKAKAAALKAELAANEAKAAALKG

T12: APC6108-AA
T12 chain: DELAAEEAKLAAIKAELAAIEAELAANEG

T13: APC9096-AA
T13 chain: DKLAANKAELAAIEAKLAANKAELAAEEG

T14: APC8910-AA
T14 chain: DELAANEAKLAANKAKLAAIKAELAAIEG

T15: APC7099-AA
T15 chain: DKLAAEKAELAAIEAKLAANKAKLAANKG

T16: APC9319-AA
T16 chain: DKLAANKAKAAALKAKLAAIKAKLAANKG


What was measured:
Experiment in all cases: two-hybrid library CCmax;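 also: natural log of median RNA to DNA barcode read ratio; higher means stronger binding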
[1] = target: T1, 4H452-AA; details: mean of both orientations
[2] = target: GCN2_T; details: mean of both orientations
[3] = target: T2, 4H56-AA; details: mean of both orientations
[4] = target: 4H_GCN4
[5] = target: T3, 4H_BCR; details: mean of both orientations
[6] = target: T4, 4H347-AA; details: mean of both orientations
[7] = target: T5, 4H3015-AA
[8] = target: T6, 4H_APH; details: mean of both orientations
[9] = target: T7, 4H3438-AA; details: mean of both orientations
[10] = target: T8, 4H3073-AA; details: mean of both orientations
[11] = target: T9, 4H406-AA; details: mean of both orientations
[12] = target: T10, APC8191-AA; details: mean of both orientations
[13] = target: T11, APC5383-AA
[14] = target: T12, APC6108-AA; details: mean of both orientations
[15] = target: T13, APC9096-AA; details: mean of both orientations
[16] = target: T14, APC8910-AA; details: mean of both orientations
[17] = target: T15, APC7099-AA; details: mean of both orientations
[18] = target: T16, APC9319-AA; details: mean of both orientations

Sequence of 4H_GCN4 (chain, as listed by the source): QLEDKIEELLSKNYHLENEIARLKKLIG

interaction score [1]	interaction score [2]	interaction score [3]	interaction score [4]	interaction score [5]	interaction score [6]	interaction score [7]	interaction score [8]	interaction score [9]	interaction score [10]	interaction score [11]	interaction score [12]	interaction score [13]	interaction score [14]	interaction score [15]	interaction score [16]	interaction score [17]	interaction score [18]	Binder
-1.36	-1.44	-1.59	-1.28	-1.81	-1.96	-1.16	-2.92	-1.63	0.065	-0.891	–	–	–	–	–	–	–	DKIAALKAKNAALKAEIAALEAKNAALEG [4H3015-AA]
–	–	–	–	–	–	–	–	–	–	–	-2.31	-1.83	-1.32	-1.73	-1.6	-1.61	-2.03	DKNAALKAKAAALKAELAANEAKAAALKG [APC5383-AA]
